Laboratory results as given in publication PMC4663164 (The Biochemical journal, 2015).

Key:
[1] = target: CK1-phosphorylated HMR-1^1108–1223 (polyhistidine-tagged) (C. elegans); experiment: liposome co-flotation
[2] = target: HMR-1^S1212E (polyhistidine-tagged HMR-1^1108–1223) (C. elegans); experiment: liposome co-flotation
[3] = target: HMR-1^S1212E,T1215E,S1218E (polyhistidine-tagged HMR-1^1108–1223) (C. elegans); experiment: liposome co-flotation
[4] = target: HMR-1^T1215E,S1218E (polyhistidine-tagged HMR-1^1108–1223) (C. elegans); experiment: liposome co-flotation
[5] = target: the molecule itself; experiment: SEC-MALS

**Q.** Which results are given for “HMP-1/HMP-2 complex (untagged, purified) (from UniProt P90947 1-927; O44326 1-678)”?
**A.** fold enhancement in HMP-1/HMP-2 recovery against unphosphorylated HMR-1 [1]: 6 fold; fold increase in HMP-1/HMP-2 recovery against unmodified HMR-1^1108–1223 [2]: 1.8 fold; fold increase in HMP-1/HMP-2 association against unmodified HMR-1^1108–1223 [3]: 2.2 fold; fold increase in HMP-1/HMP-2 binding against unmodified HMR-1^1108–1223 [4]: 1.4 fold

B1: recombinant full-length HMP-2 (natural protein, C. elegans, UniProt O44326 1-678, looked up)
chain: MLLHSTNSYSIFTDHEVETRTSRIRSAMFPDWIPPTSAAEATNSTTSIVEMMQMPTQQLKQSVMDLLTYEGSNDMSGLSLPDLVKLMCDHDESVVARAVHRAYMLSREDPNFFNAPGFDHRSFVEALMAASKSSNVNVRRNAIGALSHMSEQRGGPLLIFRSGGLAEIIRMLYDSLESVVHYAVTTLRNLLMHVSDSRAQARALNAVEALTPHLHKTNPKLLAQVADGLYFLLIDDAPSKITFLSLLGPQILVSILREYSDHRKLIYTVVRCIRSLSVCPSNKPALISLGCLPALYVELCTAKDERSQTAILVAMRNLSDSATNEENLTQLIIKLLEIIRVANDGMTACACGTLSNLTCNNTRNKQTVCSHGGIDALVTAIRRLPEVEEVTEPALCALRHCTARHSLAEEAQSELRFCQAFPVILDQLETLRTPVIKAALGVIRNSALLQTNLIELTQEQTANGHTAVSLTMDILRRAITAIEENPDIAVDGVPMWGVIEGAVSALHQLANHPAVAAACCDDIGQVGNPECPPFLDLLHRLLAHPRLGSMDDEVLEREILGLLYQLSKRPDGARAVESTGVSALLMESRGSQYKSVVTYANGVLSNLKRGDSAAIMNMSNSYDYEMSGSAADWQRDGLERELFAEMYPTNDGGHSESINMALNNSQMRPNHNWYDTDL
**Q.** How did the “stoichiometry N” value [5] turn out when B1 was run?
**A.** Its value is 2.
